Assay results as given in paper PMC4227786.

How the values were obtained:
14-3-3θ = 14-3-3θ (UniProt P27348); test: co-immunoprecipitation; conditions: reference: wild type hnRNPA1; sites S4,S6
14-3-3σ = 14-3-3σ (UniProt P31947); test: co-immunoprecipitation; conditions: reference: wild type hnRNPA1; sites S4,S6

Substance: hnRNPA1 (from UniProt P09651) S4AS6A
- binding against the reference (14-3-3θ): lost
- binding against the reference (14-3-3σ): lost
